± gives the standard deviation of the averaged measurements.
System: ATP
Test: switch fluorescence ratio, 500 uM ATP over buffer (Cy3 cluster intensity, sum of 5 cycles each) (fold (ratio)); higher = stronger signal-on switching upon ATP binding; sequences stand for … in TCGTCGGCAGCGTCAGATGTGTATAAGAGACAGTTTTTTTTTTTTTTTTTTTTTTTTT…TC
Details: aptamer strand: ATP DNA aptamer (quencher-CACCTGGGGGAGTATTGCGGAGGAAGG + anchor), 100 nM annealed; ATP concentration: 500 uM
Summary of the method: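 Cy3-labelled switching-strand clusters on a modified Illumina MiSeq flow-cell were annealed to 100 nM quencher-labelled ATP aptamer, imaged in selection buffer, then imaged after 15 min with 500 uM ATP at 22 °C. Five buffer/ATP cycles ran, with NaOH stripping and re-annealing between them. The fluorescence ratio is summed target-cycle over summed buffer-cycle Cy3 intensity per cluster, averaged per switch-domain sequence. Clusters outside 100-1000 RFU were excluded.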
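Also: ATP exposure 15 min at 22 °C before imaging.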

| Sequence | switch fluorescence ratio |
| --- | --- |
| CCAGAGGAAT | 1.043 ± 0.0079 |
| TAAGGTCGGT | 0.966 ± 0.018 |
| GGGTATATAG | 1.02 ± 0.036 |
| CACGCATTTT | 1.12 ± 0.089 |
| CTGAGGTGGT | 0.991 ± 0.046 |
| ATTCGGGTTT | 1.05 ± 0.066 |
| ATCAAACTCG | 0.979 ± 0.029 |
| CGGGGGAGGC | 0.96 ± 0.018 |
| AAAGATGAGG | 0.974 ± 0.029 |
| AGTGAGTTTT | 1.03 ± 0.024 |
| ATATATGGTT | 0.988 ± 0.036 |
| TATGCGGCTT | 0.988 ± 0.04 |
| TTAAATTCAT | 0.97175 ± 0.0009 |
| TTTATGGCCT | 1.02 ± 0.052 |
| TCTTTGTTGA | 0.995 ± 0.032 |
| GAAGGTGGGG | 0.992 ± 0.037 |
| TAAGTCGGAA | 0.996 ± 0.022 |
| TTTCCTTGTG | 1.36 ± 0.53 |
| AAGGCCAGGT | 1.17 ± 0.083 |
| TCGGGAGCCT | 0.973 ± 0.015 |
| TAAGTCATGG | 0.9922 ± 0.0078 |

| Sequence | switch fluorescence ratio |
| --- | --- |
| TTAAGAGACA | 1.03 ± 0.033 |
| TAAATGGTTC | 0.969 ± 0.027 |
| AGTCTTGGTG | 0.973 ± 0.018 |
| TGTTGTGACA | 0.967 ± 0.026 |
| TGGGGGTTGC | 0.982 ± 0.042 |
| ATTAGAACGG | 1.01 ± 0.022 |
| TTGTTAGAAA | 1.002 ± 0.0058 |
| GAGAGGATAG | 0.98157 ± 0.0003 |
| TGGATCTTCG | 0.9903 ± 0.0077 |
| TTTAGAGTGT | 1.044 ± 0.0087 |
| GCGGGGGTGT | 1.05 ± 0.026 |
| GAGTTAACGG | 1 ± 0.0026 |
| GGTTCTTATA | 1.046 ± 0.008 |
| TCCGTTTTGG | 1.03 ± 0.066 |
| GATGGTGTGC | 1.15 ± 0.29 |
| GATGTTATAA | 1 ± 0.029 |
| ACAATTGACT | 1.099 ± 0.0039 |
| TAATAGGGAT | 0.98 ± 0.019 |
| AGAAACCGTT | 1.03 ± 0.021 |
| GGTTGGAAAG | 0.9919 ± 0.0013 |
| TTTTATTGGT | 0.9738 ± 0.0075 |
